In the supplement of paper PMC10567573:

B1: SMTNL2 (parent)
chain: QKNFELAFTMAENLANCERLIEVE
B2: PKD2L1 (parent)
chain: SGPEAARAGGWVSGEEFYMLTRRV

Variants of: B1
Experiment: protein stability index of a GFP-peptide fusion (GPS, HEK-293T) (PSI 1-6); higher = more stable
Conditions: c terminus: a fixed tail appended
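Further: lentivirally expressed fusions sorted by FACS into six bins by GFP to DsRed ratio, PSI derived from sequencing read proportions per bin multiplied by bin number.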

Row | Variant | protein stability index
1 | C17V | 2.02
2 | C17F | 2.14
3 | C17G | 2.98
4 | C17H | 3.37
5 | C17Y | 2.78
6 | C17M | 2.83
7 | C17R | 3.51
8 | C17A | 2.16
9 | C17P | 4.29
10 | C17I | 2.14
11 | C17S | 2.28
12 | C17K | 3.5
13 | C17N | 4.09
14 | C17D | 3.98
15 | C17T | 1.39
16 | C17Q | 2.79
17 | R19S | 2.55
18 | R19F | 2.86
19 | R19P | 3.57
20 | R19W | 3.89
21 | R19V | 1.27
22 | R19G | 2.92
23 | R19C | 1.83
24 | R19K | 1.52
25 | R19E | 3.33

Row | Variant | protein stability index
26 | R19M | 2.86
27 | R19L | 1.55
28 | R19N | 3.03
29 | R19I | 2.57
30 | R19T | 2.61
31 | R19Q | 1.9
32 | R19A | 1.84
33 | R19H | 1.97
34 | E24M | 1.89
35 | E24Y | 2.13
36 | E24C | 1.42
37 | E24T | 1.95
38 | E24N | 2.11
39 | E24A | 2.84
40 | E24I | 1.03
41 | E24D | 1.62
42 | E24F | 3.44
43 | E24G | 2.13
44 | E24Q | 1.33
45 | E24K | 2.22
46 | E24H | 1.6
47 | E24V | 1.45
48 | E24S | 1.36
49 | E24R | 2.4
50 | E24P | 2.15

Row | Variant | protein stability index
51 | E24L | 1.56
52 | N16P | 2.8
53 | N16R | 1.44
54 | N16Y | 2.33
55 | N16F | 1.36
56 | N16Q | 2.33
57 | N16I | 2.83
58 | N16E | 2.89
59 | N16L | 2.73
60 | N16V | 2.61
61 | N16C | 1.85
62 | N16K | 3.84
63 | N16M | 1.34
64 | N16W | 3.51
65 | I21V | 2.96
66 | I21T | 4.29
67 | I21Q | 3.72
68 | I21Y | 2.99
69 | I21S | 4.54
70 | I21C | 3.27
71 | I21H | 3.17
72 | I21F | 2.29
73 | I21G | 3.85
74 | I21P | 4.14
75 | I21M | 2.61

Row | Variant | protein stability index
76 | I21E | 4.62
77 | I21K | 3.46
78 | I21D | 4.39
79 | I21N | 3.95
80 | I21R | 2.44
81 | I21A | 3.25
82 | I21W | 3.67
83 | A15M | 1.92
84 | A15H | 2.1
85 | A15N | 2.04
86 | A15E | 3.11
87 | A15Q | 1.42
88 | A15I | 1.87
89 | A15C | 2.46
90 | A15D | 3.49
91 | A15T | 1.32
92 | A15F | 1.45
93 | A15G | 2.67
94 | A15S | 1.46
95 | A15P | 2.93
96 | A15R | 1.38
97 | A15V | 2.83
98 | A15Y | 1.84
99 | A15L | 1.52
100 | V23Y | 3.99

Row | Variant | protein stability index
101 | V23P | 2.98
102 | V23S | 2.25
103 | V23G | 2.04
104 | V23H | 2.73
105 | V23Q | 1.3
106 | V23F | 2.36
107 | V23M | 4.25
108 | V23W | 1.63
109 | V23R | 2.21
110 | V23N | 1.69
111 | V23L | 2.34
112 | V23I | 1.78
113 | V23C | 2.21
114 | V23T | 3.11
115 | V23K | 1.66
116 | V23A | 2.18
117 | V23D | 1.77
118 | V23E | 2.93
119 | L14I | 2.89
120 | L14N | 2.72
121 | L14E | 4.23
122 | L14A | 3.7
123 | L14Y | 3.37
124 | L14H | 3.53
125 | L14M | 2.02

Row | Variant | protein stability index
126 | L14R | 3.92
127 | L14C | 3.14
128 | L14Q | 3.98
129 | L14V | 3.19
130 | L14D | 4.44
131 | L14P | 3.89
132 | L14K | 3.8
133 | L14S | 3.69
134 | L14W | 2.26
135 | L14T | 3.79
136 | L14F | 3.11
137 | A11I | 4.18
138 | A11P | 3.85
139 | A11W | 2.75
140 | A11G | 2.04
141 | A11K | 2.29
142 | A11Q | 1.62
143 | A11H | 3.39
144 | A11M | 1.49
145 | A11R | 3.03
146 | A11N | 2.82
147 | A11S | 2.79
148 | A11E | 3.78
149 | L20Y | 2.08
150 | L20H | 2.69

Row | Variant | protein stability index
151 | L20M | 1.35
152 | L20T | 2.25
153 | L20Q | 1.61
154 | L20C | 2.1
155 | L20D | 4.42
156 | L20V | 1.27
157 | L20P | 3.58
158 | L20A | 2.55
159 | L20F | 2.15
160 | L20W | 1.38
161 | L20I | 2.31
162 | L20R | 2.12
163 | L20E | 2.92
164 | L20K | 2.46
165 | L20S | 3.52
166 | L20N | 4.06
167 | L20G | 2.97
168 | E22P | 2.82
169 | E22D | 1.72
170 | E22K | 2.71
171 | E22G | 1.55
172 | E22M | 2.94
173 | E22C | 2.79
174 | E22I | 2.9
175 | E22A | 3.4

Row | Variant | protein stability index
176 | E22N | 1.68
177 | E22H | 1.88
178 | E22T | 3.65
179 | E18G | 1.84
180 | E18N | 2.22
181 | E18M | 2.73
182 | E18V | 1
183 | E18R | 1.85
184 | E18Y | 3.75
185 | E18C | 2.68
186 | E18Q | 1.97
187 | E18A | 2.09
188 | E18P | 2.6
189 | E18L | 1.59
190 | E18S | 2.65
191 | E18H | 2.64
192 | E18K | 2.04
193 | E18T | 2.18
194 | E18I | 4.4
195 | E18D | 2.98
196 | E12N | 2.6
197 | E12W | 3.4
198 | E12I | 1.74
199 | E12Q | 1.87
200 | E12H | 2.01

Row | Variant | protein stability index
201 | E12G | 1.98
202 | E12V | 3.63
203 | E12P | 2.26
204 | E12S | 4
205 | E12T | 1.86
206 | E12K | 2.05
207 | E12L | 2.69
208 | E12R | 1.33
209 | E12D | 1.8
210 | N13G | 2.19
211 | N13F | 2.82
212 | N13S | 2.33
213 | N13E | 2.21
214 | N13W | 2
215 | N13C | 2.69
216 | N13P | 3.63
217 | N13R | 1.67
218 | N13H | 1.41
219 | N13K | 1.95
220 | N13V | 1.33
221 | N13I | 2.98
222 | N13Q | 1.68
223 | N13T | 1.8
224 | N13L | 1.98
225 | N13Y | 2.99

Variants of: B2
Experiment: as above
Conditions: c terminus: a fixed tail appended

Row | Variant | protein stability index
226 | G2P | 2.08
227 | G2N | 2.93
228 | G2E | 3.1
229 | G2M | 3.57
230 | G2F | 1.83
231 | G2K | 1.8
232 | G2H | 2.17
233 | G2C | 1.67
234 | G2D | 2.24
235 | G2A | 2
236 | G2W | 2.91
237 | G2Y | 1.72
238 | G2S | 2.19
239 | G2V | 2.27
240 | G2T | 2.94
241 | G2Q | 2.64
242 | G2R | 2.24
243 | A6G | 3.16
244 | A6K | 2.12
245 | A6Q | 2.13
246 | A6D | 2.35
247 | A6P | 2.21

Row | Variant | protein stability index
248 | A6M | 1.7
249 | A6C | 2.31
250 | A6I | 2.02
251 | A6S | 3.01
252 | A6L | 3.07
253 | A6H | 2.24
254 | A6N | 2.85
255 | A6W | 1.06
256 | A6Y | 2.4
257 | A6R | 2.43
258 | A6E | 2.65
259 | A6F | 1.68
260 | A6V | 3.13
261 | A6T | 2.86
262 | E4F | 1.71
263 | E4Y | 1.92
264 | E4S | 3.46
265 | E4W | 1.3
266 | E4P | 2.08
267 | E4V | 1.56
268 | E4G | 2.42
269 | E4C | 1.81

Row | Variant | protein stability index
270 | E4T | 1.78
271 | E4D | 2.59
272 | E4Q | 1.57
273 | E4R | 2.44
274 | E4I | 2.02
275 | E4H | 2.28
276 | E4M | 2.35
277 | E4K | 1.94
278 | E4N | 2.64
279 | E4L | 1.6
280 | A5Y | 2.18
281 | A5F | 2.24
282 | A5K | 1.96
283 | A5E | 2.32
284 | A5P | 2.2
285 | A5C | 1.98
286 | A5I | 2.33
287 | A5H | 2.03
288 | A5G | 3.07
289 | A5D | 2.71
290 | A5Q | 2.45
291 | A5S | 1.96

Row | Variant | protein stability index
292 | A5T | 1.82
293 | A5V | 3.28
294 | A5W | 2.06
295 | A5N | 2.18
296 | A5R | 2.4
297 | A5L | 2.19
298 | A5M | 2.58
299 | P3H | 2.32
300 | P3A | 2.38
301 | P3K | 2.37
302 | P3V | 2.14
303 | P3I | 2.16
304 | P3L | 1.91
305 | P3F | 1.83
306 | P3E | 2.43
307 | P3Y | 1.49
308 | P3S | 2.02
309 | P3R | 1.78
310 | P3T | 2.4
311 | P3G | 2.63
312 | P3Q | 2.44
313 | P3M | 2.2

Row | Variant | protein stability index
314 | P3N | 2.59
315 | P3W | 1.74
316 | P3C | 2.11
317 | P3D | 2.04
318 | R7E | 2.75
319 | S1K | 2.75
320 | S1Q | 3.02
321 | S1T | 2.68
322 | S1P | 2.35
323 | S1V | 2.67
324 | S1E | 2.68
325 | S1W | 2.85
326 | S1L | 1.5
327 | S1D | 2.35
328 | S1N | 2.65
329 | S1M | 2.04
330 | S1I | 2.64
331 | S1H | 2.53
332 | S1F | 1.12
333 | S1A | 2.81
334 | S1Y | 1.46
